In US20190062457A1 (BROWN UNIVERSITY, published 2019):

Target: T1, human Chi3l1 (chitinase 3-like-1) (human, UniProt P36222 22-383)
T1 construct: also called YKL-40; recombinant (r) human Chi3l1
Experiment: Western blot / ELISA detection of Chi3l1, denaturing and non-denaturing

T1 sequence (P36222 22-383 limits assumed): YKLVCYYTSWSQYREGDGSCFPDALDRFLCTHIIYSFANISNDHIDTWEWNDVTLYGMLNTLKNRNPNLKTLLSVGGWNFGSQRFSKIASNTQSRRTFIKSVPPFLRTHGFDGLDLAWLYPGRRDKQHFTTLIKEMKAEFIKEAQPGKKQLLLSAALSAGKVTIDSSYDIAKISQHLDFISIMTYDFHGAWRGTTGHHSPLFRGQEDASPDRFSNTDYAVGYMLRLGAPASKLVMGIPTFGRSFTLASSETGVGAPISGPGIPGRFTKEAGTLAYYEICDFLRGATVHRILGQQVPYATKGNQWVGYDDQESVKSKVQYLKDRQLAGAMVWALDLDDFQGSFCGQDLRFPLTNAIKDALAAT

binding result: binds
B1: FRG monoclonal antibody (anti-Chi3l1) (antibody, IgG2b, V domains shown)
VH: QIQLVQSGPELKKPGETVKISCKASGYTFTNYGMNWVKQAPGKGLKWMGWINTYTGEPTYADDFKGRFAFSLETSASTAYLQINNLRNEDMSTYFCARLGYGKFYVMDYWGQGTSVTVSS
VL: DVVMTQTPLSLPVSLGDQASISCRSSQSLVHSNGNTYLHWYLQKPGQSPKLLIYKVSNRFSGVPDRFSGSGSGTDFTLKISRVEAEDLGVYFCSQSTHVTWTFGGGTKLEIK
notes: The antibody is described as an IgG2b Kappa monoclonal; also called FRG mAb; FRG antibody
